{"source": "paper PMC9798103", "target": "F-actin (polymerised from Ca2+-ATP G-actin of rabbit skeletal muscle) (rabbit) (UniProt P68135)", "test": "co-sedimentation"}
{"substance": "N-terminal half of RHGF-1 without the PDZ domain (RHGF-1-N-ΔPDZ) (domain or fragment)", "values": [{"measurement": "Kd", "result": 14, "unit": "µM"}]}
